pKd: −log10 of the molar value. One block for each substance: values may come before it.
Tests used:
[1] = system: TbRpf2 (coexpressed, untagged);(His)6-TbRrs1 (coexpressed) (Trypanosoma brucei;Trypanosoma brucei); test: filter binding; conditions: coexpressed complex; Filter binding with radiolabeled 5S rRNA, triplicate; buffer, salt, pH and temperature not given (as in ref 9)
[2] = system: (His)6-TbRpf2 (Trypanosoma brucei); test: filter binding; conditions: without TbRrs1; text also cites ref 11; Filter binding with radiolabeled 5S rRNA, triplicate; buffer, salt, pH and temperature not given (as in ref 9)
[3] = system: SUMO-TbRrs1 (Trypanosoma brucei); test: filter binding; conditions: Filter binding with radiolabeled 5S rRNA, triplicate; buffer, salt, pH and temperature not given (as in ref 9)
[4] = biological target: recombinant TbRpf2 (T. brucei); test: co-IP; recombinant TbRrs1 incubated with recombinant P34, TbL5 or TbRpf2, precipitated with anti-P34, anti-L5 or anti-Rpf2 antibody, with or without in vitro-transcribed 5S rRNA; anti-His Western blot of pellet and supernatant
[5] = biological target: recombinant P34 (T. brucei); test: as above
[6] = biological target: recombinant TbL5 (T. brucei); test: as above
[7] = biological target: P34/P37 (trypanosome-specific proteins); test: co-IP; whole-cell extract of 10×-Ty-TbRrs1 T. brucei cells, beads with anti-P34/P37, anti-TbL5 or anti-TbRpf2 antibody, anti-Ty Western blot of pellet and supernatant; without RNase A
[8] = biological target: TbRpf2 (T. brucei homologue of Rpf2), endogenous (T. brucei (endogenous in 10×-Ty-TbRrs1 cells)); test: as above
[9] = biological target: TbL5 (T. brucei homologue of ribosomal protein L5), endogenous (T. brucei (endogenous in 10×-Ty-TbRrs1 cells)); test: as above
[10] = biological target: P34/P37 (trypanosome-specific proteins); test: co-IP; whole-cell extract of 10×-Ty-TbRrs1 T. brucei cells, beads with anti-P34/P37, anti-TbL5 or anti-TbRpf2 antibody, anti-Ty Western blot of pellet and supernatant; cellular RNA digested with RNase A
[11] = biological target: TbRpf2 (T. brucei homologue of Rpf2), endogenous (T. brucei (endogenous in 10×-Ty-TbRrs1 cells)); test: as above
[12] = biological target: TbL5 (T. brucei homologue of ribosomal protein L5), endogenous (T. brucei (endogenous in 10×-Ty-TbRrs1 cells)); test: as above

Substance: T. brucei 5S rRNA
pKd [1]: 7.76 | pKd [2]: 7.77 | pKd [3]: 7.26

amount in the pellet relative to pellet plus supernatant, with 5S rRNA [4]: 0.65 | amount in the pellet relative to pellet plus supernatant, without 5S rRNA [4]: 0.53 | amount in the pellet relative to pellet plus supernatant, with 5S rRNA [5]: 0.71 | amount in the pellet relative to pellet plus supernatant, without 5S rRNA [5]: 0.77 | amount in the pellet relative to pellet plus supernatant, with 5S rRNA [6]: 0.74 | amount in the pellet relative to pellet plus supernatant, without 5S rRNA [6]: 0.78
Substance: SUMO-TbRrs1 (recombinant) (natural protein)

Substance: 10×-Ty-TbRrs1 (Trypanosoma brucei homologue of regulator of ribosome synthesis 1, Ty-tagged at one copy of the gene) (natural protein)
amount in the pellet relative to pellet plus supernatant [7]: 0.06 | amount in the pellet relative to pellet plus supernatant [8]: 0.02 | amount in the pellet relative to pellet plus supernatant [9]: 0.24 | amount in the pellet relative to pellet plus supernatant [10]: 0.61 | amount in the pellet relative to pellet plus supernatant [11]: 0.58 | amount in the pellet relative to pellet plus supernatant [12]: 0.63
